From patent US20240376455

Legend:
Assay in all cases: cleavage_in_vitro
[1] = system: T1, LPG10139 (Bacillus megaterium); details: PAM NNNNC
T1 sequence: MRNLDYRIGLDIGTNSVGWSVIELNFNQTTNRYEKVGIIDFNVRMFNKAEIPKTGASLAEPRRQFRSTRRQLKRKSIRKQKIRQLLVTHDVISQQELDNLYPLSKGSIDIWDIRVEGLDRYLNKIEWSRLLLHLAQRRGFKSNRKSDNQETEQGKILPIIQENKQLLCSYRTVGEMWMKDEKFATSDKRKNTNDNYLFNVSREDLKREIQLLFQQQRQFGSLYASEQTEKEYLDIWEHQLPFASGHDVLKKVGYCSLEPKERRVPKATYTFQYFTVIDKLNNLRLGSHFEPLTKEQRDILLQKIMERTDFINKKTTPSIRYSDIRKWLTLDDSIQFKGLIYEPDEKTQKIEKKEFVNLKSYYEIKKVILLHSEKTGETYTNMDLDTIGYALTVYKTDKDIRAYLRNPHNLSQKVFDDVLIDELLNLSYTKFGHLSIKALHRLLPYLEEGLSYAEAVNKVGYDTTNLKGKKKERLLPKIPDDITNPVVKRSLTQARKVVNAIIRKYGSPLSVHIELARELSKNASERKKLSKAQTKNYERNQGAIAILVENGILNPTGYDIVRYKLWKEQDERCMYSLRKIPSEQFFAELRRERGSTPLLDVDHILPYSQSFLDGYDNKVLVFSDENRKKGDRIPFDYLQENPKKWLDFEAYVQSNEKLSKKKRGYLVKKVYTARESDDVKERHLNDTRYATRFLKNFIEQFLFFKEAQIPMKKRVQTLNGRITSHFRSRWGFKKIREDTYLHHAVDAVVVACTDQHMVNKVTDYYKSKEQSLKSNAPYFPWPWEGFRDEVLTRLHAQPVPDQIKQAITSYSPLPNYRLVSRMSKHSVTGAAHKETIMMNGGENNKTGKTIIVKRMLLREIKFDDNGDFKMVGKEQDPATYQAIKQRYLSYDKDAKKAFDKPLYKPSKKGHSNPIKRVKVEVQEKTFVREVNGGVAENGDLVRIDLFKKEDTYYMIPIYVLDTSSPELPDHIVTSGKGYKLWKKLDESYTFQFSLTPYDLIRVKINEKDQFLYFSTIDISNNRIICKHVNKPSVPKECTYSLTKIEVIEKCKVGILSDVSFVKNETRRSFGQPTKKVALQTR

LPG10145 (undetermined) = system: T2, LPG10145 (undetermined); details: PAM NNGG; 37C 120 min
T2 sequence: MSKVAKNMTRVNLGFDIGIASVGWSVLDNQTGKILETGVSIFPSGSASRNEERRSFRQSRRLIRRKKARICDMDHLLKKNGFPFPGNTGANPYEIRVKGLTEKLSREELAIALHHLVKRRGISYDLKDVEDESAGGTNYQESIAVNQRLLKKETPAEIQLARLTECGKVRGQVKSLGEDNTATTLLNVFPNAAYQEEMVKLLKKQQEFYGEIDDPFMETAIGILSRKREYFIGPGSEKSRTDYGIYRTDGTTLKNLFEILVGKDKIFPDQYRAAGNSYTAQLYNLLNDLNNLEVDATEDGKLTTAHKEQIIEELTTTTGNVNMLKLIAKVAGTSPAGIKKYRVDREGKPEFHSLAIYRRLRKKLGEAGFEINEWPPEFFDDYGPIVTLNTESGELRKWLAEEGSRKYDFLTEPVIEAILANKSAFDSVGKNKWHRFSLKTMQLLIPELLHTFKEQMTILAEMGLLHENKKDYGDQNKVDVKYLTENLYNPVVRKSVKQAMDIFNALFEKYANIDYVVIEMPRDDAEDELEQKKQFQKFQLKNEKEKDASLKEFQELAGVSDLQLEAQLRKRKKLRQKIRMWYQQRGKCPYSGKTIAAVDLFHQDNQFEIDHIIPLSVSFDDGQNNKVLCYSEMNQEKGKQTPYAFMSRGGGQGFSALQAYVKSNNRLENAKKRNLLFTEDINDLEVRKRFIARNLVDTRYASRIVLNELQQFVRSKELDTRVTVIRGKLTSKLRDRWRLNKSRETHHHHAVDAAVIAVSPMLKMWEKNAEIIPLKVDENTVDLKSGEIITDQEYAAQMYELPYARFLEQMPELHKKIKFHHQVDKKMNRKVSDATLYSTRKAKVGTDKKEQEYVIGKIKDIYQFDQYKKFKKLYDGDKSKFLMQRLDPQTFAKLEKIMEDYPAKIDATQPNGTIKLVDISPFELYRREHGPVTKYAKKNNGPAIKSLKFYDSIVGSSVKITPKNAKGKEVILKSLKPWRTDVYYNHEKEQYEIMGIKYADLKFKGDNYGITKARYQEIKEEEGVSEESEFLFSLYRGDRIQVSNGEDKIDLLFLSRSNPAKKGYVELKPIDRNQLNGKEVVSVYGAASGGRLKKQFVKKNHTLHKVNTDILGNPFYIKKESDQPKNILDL

LPG10150 (undetermined) = system: T3, LPG10150 (undetermined); details: PAM SEQ ID 81
T3 sequence: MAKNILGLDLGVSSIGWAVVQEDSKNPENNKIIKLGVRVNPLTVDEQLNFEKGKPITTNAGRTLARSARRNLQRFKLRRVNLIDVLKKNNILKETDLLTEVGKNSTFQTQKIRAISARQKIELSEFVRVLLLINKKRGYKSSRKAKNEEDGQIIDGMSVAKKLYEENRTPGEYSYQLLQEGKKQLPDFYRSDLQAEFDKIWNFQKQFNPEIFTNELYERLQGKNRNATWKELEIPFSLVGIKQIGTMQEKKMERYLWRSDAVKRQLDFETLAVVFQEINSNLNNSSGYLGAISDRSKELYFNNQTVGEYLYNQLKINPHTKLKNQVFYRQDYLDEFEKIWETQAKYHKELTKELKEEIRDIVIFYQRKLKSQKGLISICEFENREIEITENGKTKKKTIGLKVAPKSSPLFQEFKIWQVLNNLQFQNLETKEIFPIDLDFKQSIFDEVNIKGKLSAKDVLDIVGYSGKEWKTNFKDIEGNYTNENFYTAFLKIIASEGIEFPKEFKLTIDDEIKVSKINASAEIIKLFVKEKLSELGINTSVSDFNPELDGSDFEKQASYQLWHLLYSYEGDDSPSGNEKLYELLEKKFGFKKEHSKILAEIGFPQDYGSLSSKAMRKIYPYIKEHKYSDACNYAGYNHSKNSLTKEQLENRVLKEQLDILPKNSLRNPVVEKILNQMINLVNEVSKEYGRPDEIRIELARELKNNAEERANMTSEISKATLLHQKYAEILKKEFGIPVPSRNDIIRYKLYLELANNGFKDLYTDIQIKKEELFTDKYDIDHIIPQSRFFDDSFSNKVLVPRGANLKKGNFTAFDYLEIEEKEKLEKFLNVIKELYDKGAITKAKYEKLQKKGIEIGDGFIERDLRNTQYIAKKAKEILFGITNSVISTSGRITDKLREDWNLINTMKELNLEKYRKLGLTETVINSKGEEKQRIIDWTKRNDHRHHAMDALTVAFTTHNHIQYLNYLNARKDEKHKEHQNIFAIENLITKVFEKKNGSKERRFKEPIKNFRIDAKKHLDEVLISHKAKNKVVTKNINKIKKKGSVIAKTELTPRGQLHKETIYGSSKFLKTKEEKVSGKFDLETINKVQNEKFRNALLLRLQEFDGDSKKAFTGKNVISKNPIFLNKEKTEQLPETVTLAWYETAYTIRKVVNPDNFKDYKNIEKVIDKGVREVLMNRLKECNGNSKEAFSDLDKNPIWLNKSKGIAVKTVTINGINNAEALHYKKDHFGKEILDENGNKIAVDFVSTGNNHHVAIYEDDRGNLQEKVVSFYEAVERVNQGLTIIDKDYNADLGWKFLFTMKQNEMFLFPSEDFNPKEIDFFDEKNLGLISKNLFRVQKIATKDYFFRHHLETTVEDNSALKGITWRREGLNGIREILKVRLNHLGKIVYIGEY

Sequence	activity (% target strand cleaved) [1]	activity (% target strand cleaved) (LPG10145 (undetermined))	activity (% target strand cleaved) (LPG10150 (undetermined))
GUCAUAGUCCCAUCAUAUCCAUUGAAAGCAAUGGAUAUGAUGUUUCUAUGAUAAGGGCUCUCUAAGAGAGACCUGUGGCGUUGGGGAUCGCCUGCCCGUUUCGACGGGUGUCUCCCCAUUU / GATATAGACGTTGTGGCTGTTGTAGTAGGACCTC / GAGGTCCTACTACAACAGCCACAACGTCTATATC [LPG10139 sgRNA L2 ; Library 2 target AGGACCTC]	7.3	–	–
GUCAUAGUCCCAUCAUAUCCAUUGAAAGCAAUGGAUAUGAUGUUUCUAUGAUAAGGGCUCUCUAAGAGAGACCUGUGGCGUUGGGGAUCGCCUGCCCGUUUCGACGGGUGUCUCCCCAUUU / GGACAGCAGCTTCCTATATCTCGTACAGGACCTC / GAGGTCCTGTACGAGATATAGGAAGCTGCTGTCC [LPG10139 sgRNA L1 ; Library 1 target AGGACCTC]	4.4	–	–
GUUAUUGUACUCUCAAGGAAUCAGAAAGACUGAUUCCUUGAGAAUCUACAAUAAUAAGGCUUUAUGCCGAAAUUCCCACUCUUAACGGAGUGGGUUUU / GATATAGACGTTGTGGCTGTTGTAGTACGGATTC / GAATCCGTACTACAACAGCCACAACGTCTATATC [LPG10145 sgRNA L2 ; Library 2 target ACGGATTC]	–	100	–
GUUAUUGUACUCUCAAGGAAUCAGAAAGACUGAUUCCUUGAGAAUCUACAAUAAUAAGGCUUUAUGCCGAAAUUCCCACUCUUAACGGAGUGGGUUUU / GGACAGCAGCTTCCTATATCTCGTACACGGATTC / GAATCCGTGTACGAGATATAGGAAGCTGCTGTCC [LPG10145 sgRNA L1 ; Library 1 target ACGGATTC]	–	92.9	–
GUUGUGAAUUGCUUUAAAGAAAGCAAUUCACAAUAAGGAUUAUUCCGUUGUGAAAACAUCUAGCGCCUCGUCUAUCUACGGGGCAUUUU / GATATAGACGTTGTGGCTGTTGTAGTAGGACTTC / GAAGTCCTACTACAACAGCCACAACGTCTATATC [LPG10150 sgRNA L2 ; Library 2 target AGGACTTC]	–	–	31.8
GUUGUGAAUUGCUUUAAAGAAAGCAAUUCACAAUAAGGAUUAUUCCGUUGUGAAAACAUCUAGCGCCUCGUCUAUCUACGGGGCAUUUU / GGACAGCAGCTTCCTATATCTCGTACAGGACCTC / GAGGTCCTGTACGAGATATAGGAAGCTGCTGTCC [LPG10150 sgRNA L1 ; Library 1 target AGGACCTC]	–	–	1.4
